Molecular target: cardiac troponin I (cTnI, TnI) (UniProt P19429 2-210)
Assay: fluorescence decrease of surface-immobilized FAM aptamer; aptamer on gold electrode; pH 7.4; 0.02x PBS stated for the chip rinse; aptamer immobilized at 24 °C for 24 h; binding temperature not given
Conditions: label: 3' FAM; single strand

Sequence of cardiac troponin I (cTnI, TnI) (P19429 2-210): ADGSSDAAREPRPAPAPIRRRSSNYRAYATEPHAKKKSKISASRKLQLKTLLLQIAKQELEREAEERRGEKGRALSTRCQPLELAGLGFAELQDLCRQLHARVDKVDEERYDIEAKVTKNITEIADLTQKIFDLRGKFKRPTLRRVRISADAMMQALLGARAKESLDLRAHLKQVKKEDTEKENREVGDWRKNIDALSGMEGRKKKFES

## CGTGCAGTACGCCAACCTTTCTCATGCGCTGCCCCTCTTA (ssDNA, 5' disulfide (S-S), reduced with TCEP to thiol; immobilized on gold) [Tro4 aptamer]
  binding result: binds
